Experimental data: paper doi:10.1101/2024.11.01.621267 (bioRxiv, 2024)

B1: HsLARP4 peptide 587–637 (peptide)
peptide: TTKPSRASTASPCNNNINAATAVALQEPRKLSYAEVCQKPPKEPSSVLVQP
notes: La-related protein 4 (LARP4), human, residues 587-637; source: synthetic peptide (GenScript)
B2: HsLARP4 peptide 615–625 (peptide)
peptide: RKLSYAEVCQK
notes: La-related protein 4 (LARP4), human, residues 615-625 (within CR2); source: synthetic peptide (GenScript)
B3: HsLARP4 peptide 612–625 (peptide)
peptide: QEPRKLSYAEVCQK
notes: La-related protein 4 (LARP4), human, residues 612-625; source: synthetic peptide (GenScript)
B4: HsLARP4 peptide 575–625 (peptide)
peptide: LNQTTIPVSPPSTTKPSRASTASPCNNNINAATAVALQEPRKLSYAEVCQK
notes: La-related protein 4 (LARP4), human, residues 575-625; source: synthetic peptide (GenScript)

Target: recombinant full-length RACK1 protein (ITC) (human, UniProt P63244 1-317)
Assay: ITC; LARP4 peptide (400 μM; 300 μM for 600–625) injected into RACK1 (40 μM; 30 μM) in the cell; iTC200; 298K; 20 mM HEPES, 300 mM NaCl, 10% glycerol, 1 mM DTT pH 7.5; triplicate
Details: both partners purified

| Binder | Ka [M⁻¹] | Kd [nM] | dH [kcal/mol] | stoichiometry N |
| --- | --- | --- | --- | --- |
| B1 | 440000 | 2300 | -7.8 | 1 |
| B2 | – | 3000 | -8.1 | 0.9 |
| B3 | – | 2000 | -8.3 | 0.8 |
| B4 | 370000 | 2700 | -5.7 | 1 |
